Columns and labels:
[1] = target: PfHsp70-x-C (27–679) (P. falciparum); assay: pull-down; PfHsp70-x-C cross-linked to coupling resin, increasing PFA0660w-C (1.4286-28.5714 µM), with 1 mM ATP; band densities on SDS-PAGE, nonlinear regression
[2] = target: PfHsp70-x-C (27–679) (P. falciparum)
[3] = target: PfHsp70-x-S (30–412) (P. falciparum)
[4] = target: PfHsp70-x-C (27–679) (P. falciparum); assay: pull-down; PfHsp70-x-C cross-linked to coupling resin, increasing PFA0660w-C (1.4286-28.5714 µM), without ATP; band densities on SDS-PAGE, nonlinear regression
[5] = target: PfHsp70-x-C (27–679) (P. falciparum); remark: listed apart in the source
[6] = target: PfHsp70-x-S (30–412) (P. falciparum); remark: listed apart in the source
[7] = target: PfHsp70-x-C (27–679) (P. falciparum); assay: BLI; Octet K2, 25 °C; His-tagged PfHsp70-x-C loaded on Ni-NTA biosensors, ATS as analyte (1.563-6.25 µM); steady-state analysis, 1:1 model

PFA0660w-C (81–386) (domain or fragment)
Kd [1]: 0.781 µM
MDH aggregation suppression (absorbance at 360 nm, 48 °C): percent MDH aggregation with PFA0660w-C and PfHsp70-x-C together [2]: 10.7%
MDH aggregation suppression (absorbance at 360 nm, 48 °C): percent MDH aggregation with PFA0660w-C and PfHsp70-x-S together [3]: 18.2%
Kd [4]: 5.58 µM
beta galactosidase refolding: recovered enzyme activity with PFA0660w-C and PfHsp70-x-C together [5]: 66.7%
beta galactosidase refolding: recovered enzyme activity with PFA0660w-C and PfHsp70-x-S together [6]: 34.7%

acidic terminal segment (ATS) domain of PfEMP1 (PF08_0141) (domain or fragment)
Kd [7]: 180 µM

Reference: paper PMC6389991
